{"source": "paper PMC5485733", "about": "“An Amyloidogenic Sequence at the N-Terminus of the Androgen Receptor Impacts Polyglutamine Aggregation” (Biomolecules, 2017)", "target": "the molecule itself", "experiment": "SEC + other: mass spectrometry; HiLoad 16/60 Superdex 75, 20 mM sodium phosphate pH 6.5, 150 mM NaCl, with or without 2 mM DTT; dimer fraction decreased with DTT; fractions identified by mass spectrometry; monomer to covalent dimer"}
{"protein": "SAPKELCKAVSVSM (domain or fragment, human, three amino acids Ser-Ala-Pro linker inserted between the SUMO tag and the peptide; The peptide is the C-terminus of the chain (stop codon after it); The dimer is covalent; Printed mass 15,819 (printed as kDa); source: E. coli Rosetta (DE3), purified (Ni-NTA agarose, SEC); not shown: His, N-terminal, kept; SUMO, N-terminal, kept)", "note": "[His-SUMO-peptide fusion protein (SUMO_SAPKELCKAVSVSM)]", "values": [{"measurement": "stoichiometry N", "value": 2}]}
